Measurements taken from PMC5645467, “Three-dimensional context rather than NLS amino acid sequence determines importin α subtype specificity for RCC1” (Nature Communications, 2017).
Residue numbers refer to the chain shown, from its start. Names may count otherwise.

T1: GST-ΔIBB-importin α3 (human, UniProt O00629 59-521)
T1 construct: human importin α3 lacking the N-terminal IBB domain; also called GST-tagged importin α3 (lacking the IBB); source: E. coli BL21(DE3) AI or BL21(DE3), pGEX-6P, purified (glutathione resin); not shown: GST, N-terminal, kept
T1 sequence (looked up): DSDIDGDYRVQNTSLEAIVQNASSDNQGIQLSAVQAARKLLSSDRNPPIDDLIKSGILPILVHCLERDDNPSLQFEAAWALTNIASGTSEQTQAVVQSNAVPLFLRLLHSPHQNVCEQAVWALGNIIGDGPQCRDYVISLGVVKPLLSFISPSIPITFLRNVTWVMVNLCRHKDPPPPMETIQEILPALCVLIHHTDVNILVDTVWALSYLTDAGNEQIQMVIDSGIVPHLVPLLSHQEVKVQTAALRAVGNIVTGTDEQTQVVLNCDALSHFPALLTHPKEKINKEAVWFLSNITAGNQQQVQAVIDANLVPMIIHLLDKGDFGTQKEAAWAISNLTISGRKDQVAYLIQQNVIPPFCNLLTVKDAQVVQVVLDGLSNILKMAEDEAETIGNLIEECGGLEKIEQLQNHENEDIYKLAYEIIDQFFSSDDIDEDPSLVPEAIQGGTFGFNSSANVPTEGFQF

T2: ΔIBB-Kap60 (co-expressed with yeast GST-RCC1) (Saccharomyces cerevisiae, UniProt Q02821 66-542)
T2 construct: yeast importin α Kap60 lacking the N-terminal IBB domain; the methods say ΔIBB-Kap60; source: E. coli BL21-AI, co-expressed with yeast GST-RCC1, purified as complex (glutathione beads, PreScission, SEC)
T2 sequence (looked up): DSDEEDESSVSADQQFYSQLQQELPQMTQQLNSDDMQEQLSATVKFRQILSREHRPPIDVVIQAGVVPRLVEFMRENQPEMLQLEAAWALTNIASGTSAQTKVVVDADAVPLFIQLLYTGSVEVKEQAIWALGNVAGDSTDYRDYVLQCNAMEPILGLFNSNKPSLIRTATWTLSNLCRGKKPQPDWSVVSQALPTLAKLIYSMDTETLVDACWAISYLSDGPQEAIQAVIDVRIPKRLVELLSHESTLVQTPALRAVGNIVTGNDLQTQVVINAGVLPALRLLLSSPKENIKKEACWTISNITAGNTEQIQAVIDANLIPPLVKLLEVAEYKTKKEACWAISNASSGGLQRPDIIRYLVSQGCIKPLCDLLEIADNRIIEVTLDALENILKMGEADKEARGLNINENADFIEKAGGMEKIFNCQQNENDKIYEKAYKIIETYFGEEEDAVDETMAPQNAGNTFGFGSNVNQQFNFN

B1: Δ5-RCC1 (domain or fragment, human, UniProt P18754 6-421, looked up)
chain: IAKRRSPPADAIPKSKKVKVSHRSHSTEPGLVLTLGQGDVGQLGLGENVMERKKPALVSIPEDVVQAEAGGMHTVCLSKSGQVYSFGCNDEGALGRDTSVEGSEMVPGKVELQEKVVQVSAGDSHTAALTDDGRVFLWGSFRDNNGVIGLLEPMKKSMVPVQVQLDVPVVKVASGNDHLVMLTADGDLYTLGCGEQGQLGRVPELFANRGGRQGLERLLVPKCVMLKSRGSRGHVRFQDAFCGAYFTFAISHEGHVYGFGLSNYHQLGTPGTESCFIPQNLTSFKNSTKSWVGFSGGQHHTVCMDSEGKAYSLGRAEYGRLGLGEGAEEKSIPTLISRLPAVSSVACGASVGYAVTKDGRVFAWGMGTNYQLGTGQDEDAWSPVEMMGKQLENRVVLSVSSGGQHTVLLVKDKEQS
notes: human RCC1 (RCC1α) with the first five residues deleted; source: E. coli BL21(DE3) AI or BL21(DE3), purified
B2: RCC1 (human, wild type, free protein) (natural protein, UniProt P18754 1-421, looked up)
chain: MSPKRIAKRRSPPADAIPKSKKVKVSHRSHSTEPGLVLTLGQGDVGQLGLGENVMERKKPALVSIPEDVVQAEAGGMHTVCLSKSGQVYSFGCNDEGALGRDTSVEGSEMVPGKVELQEKVVQVSAGDSHTAALTDDGRVFLWGSFRDNNGVIGLLEPMKKSMVPVQVQLDVPVVKVASGNDHLVMLTADGDLYTLGCGEQGQLGRVPELFANRGGRQGLERLLVPKCVMLKSRGSRGHVRFQDAFCGAYFTFAISHEGHVYGFGLSNYHQLGTPGTESCFIPQNLTSFKNSTKSWVGFSGGQHHTVCMDSEGKAYSLGRAEYGRLGLGEGAEEKSIPTLISRLPAVSSVACGASVGYAVTKDGRVFAWGMGTNYQLGTGQDEDAWSPVEMMGKQLENRVVLSVSSGGQHTVLLVKDKEQS
notes: human RCC1, predominant isoform RCC1α, synthetic gene; also called free RCC1; WT RCC1; source: E. coli BL21(DE3) AI or BL21(DE3), purified
B3: GST-RCC1 (full-length human RCC1, wild type) (natural protein, UniProt P18754 1-421, looked up)
chain: B2 chain
notes: human RCC1, predominant isoform RCC1α, synthetic gene (GenScript); β-propeller printed as residues 30–421; Used in the syringe for ITC (methods say GST-RCC1); also called full length GST-RCC1; WT GST-RCC1; source: E. coli BL21(DE3) AI or BL21(DE3), pGEX-6P, glutathione resin; not shown: GST, N-terminal, kept
B4: RCC1 (human, cleaved from GST, in the purified importin α3:RCC1 complex) (natural protein, UniProt P18754 1-421, looked up)
chain: B2 chain
notes: human RCC1, predominant isoform RCC1α, synthetic gene; also called RCC1α; human RCC1; source: E. coli BL21-AI, co-expressed with ΔIBB-importin α3, cleaved off glutathione beads with PreScission Protease, SEC; not shown: GST, N-terminal, cleaved
B5: RCC1-K21A (natural protein, human, UniProt P18754 1-421, looked up)
chain: B2 chain with K21A
notes: human RCC1 (RCC1α) with K21A; also called P2 mutant; source: E. coli BL21(DE3) AI or BL21(DE3), purified
B6: RCC1-S11E (natural protein, human, UniProt P18754 1-421, looked up)
chain: B2 chain with S11E
notes: human RCC1 (RCC1α) with the phospho-mimetic S11E; also called phospho-mimetic RCC1-S11E; source: E. coli BL21(DE3) AI or BL21(DE3), purified
B7: RCC1-R9A (natural protein, human, UniProt P18754 1-421, looked up)
chain: B2 chain with R9A
notes: human RCC1 (RCC1α) with R9A; also called P2′ mutant; source: E. coli BL21(DE3) AI or BL21(DE3), purified
B8: RCC1-R9A/K21A (natural protein, human, UniProt P18754 1-421, looked up)
chain: B2 chain with R9A, K21A
notes: human RCC1 (RCC1α) with R9A and K21A; also called P2/P2′ double mutant; source: E. coli BL21(DE3) AI or BL21(DE3), purified
B9: ΔIBB-importin α3 (as used for ITC) (domain or fragment)
chain: not shown
modifications: Limits not given; taken from the ΔIBB-importin α3 entity of PDB 4UAE (Met + 420 residues, starting VQNTS), which fits the expected complex MW of ~91.2 kDa. A construct running to 521 is possible.
B10: Δ10-RCC1 (domain or fragment, human, UniProt P18754 11-421, looked up)
chain: SPPADAIPKSKKVKVSHRSHSTEPGLVLTLGQGDVGQLGLGENVMERKKPALVSIPEDVVQAEAGGMHTVCLSKSGQVYSFGCNDEGALGRDTSVEGSEMVPGKVELQEKVVQVSAGDSHTAALTDDGRVFLWGSFRDNNGVIGLLEPMKKSMVPVQVQLDVPVVKVASGNDHLVMLTADGDLYTLGCGEQGQLGRVPELFANRGGRQGLERLLVPKCVMLKSRGSRGHVRFQDAFCGAYFTFAISHEGHVYGFGLSNYHQLGTPGTESCFIPQNLTSFKNSTKSWVGFSGGQHHTVCMDSEGKAYSLGRAEYGRLGLGEGAEEKSIPTLISRLPAVSSVACGASVGYAVTKDGRVFAWGMGTNYQLGTGQDEDAWSPVEMMGKQLENRVVLSVSSGGQHTVLLVKDKEQS
notes: human RCC1 (RCC1α) lacking the entire minor NLS box; source: E. coli BL21(DE3) AI or BL21(DE3), purified
B11: yRCC1 (yeast RCC1, cleaved from GST, in the purified Kap60:yRCC1 complex) (natural protein, Saccharomyces cerevisiae (strain S288C))
chain: MVKRTVATNGDASGAHRAKKMSKTHASHIINAQEDYKHMYLSVQPLDIFCWGTGSMCELGLGPLAKNKEVKRPRLNPFLPRDEAKIISFAVGGMHTLALDEESNVWSWGCNDVGALGRDTSNAKEQLKDMDADDSSDDEDGDLNELESTPAKIPRESFPPLAEGHKVVQLAATDNMSCALFSNGEVYAWGTFRCNEGILGFYQDKIKIQKTPWKVPTFSKYNIVQLAPGKDHILFLDEEGMVFAWGNGQQNQLGRKVMERFRLKTLDPRPFGLRHVKYIASGENHCFALTKDNKLVSWGLNQFGQCGVSEDVEDGALVTKPKRLALPDNVVIRSIAAGEHHSLILSQDGDLYSCGRLDMFEVGIPKDNLPEYTYKDVHGKARAVPLPTKLNNVPKFKSVAAGSHHSVAVAQNGIAYSWGFGETYAVGLGPFEDDTEVPTRIKNTATQDHNIILVGCGGQFSVSGGVKLSDEDAEKRADEMDD
notes: Saccharomyces cerevisiae RCC1 homolog Prp20p, amplified from a genomic library of strain S288C; also called Prp20p; source: E. coli BL21-AI, co-expressed with ΔIBB-Kap60, cleaved off glutathione beads with PreScission Protease, SEC; not shown: GST, N-terminal, cleaved

Legend:
Settings in all cases: both partners purified
[1] = target: T1, GST-ΔIBB-importin α3; test: pull-down; purified GST-ΔIBB-importin α3 or GST-ΔIBB-Kap60 (1 µM) pre-incubated with RCC1/yRCC1 (0.75 µM) ~60 min at 4 °C, then bound to glutathione beads, washed three times, eluted with 25 mM reduced glutathione; SDS-PAGE, Coomassie, quantified in triplicate, WT = 100%
[2] = target: B9; test: ITC; nano-ITC, 20 °C; GST-RCC1 (300 µM) injected in 2.0 µl increments into 195 µl of ΔIBB-importin α3 or α1 (100 µM); 20 mM Tris-HCl pH 8.0, 150 mM NaCl, 5 mM BME, 0.1 mM PMSF; single set of binding sites model; triplicate
[3] = target: untagged ΔIBB-importin α3 (co-expressed with GST-RCC1) (human, UniProt O00629 1-521, Limits not given; taken from the ΔIBB-importin α3 entity of PDB 4UAE, which fits the expected complex MW of ~91.2 kDa. The 5TBK entity lists the full-length sequence although the IBB was deleted.); test: SAXS; purified importin α3:RCC1 complex in GF buffer, 3.5–7.5 mg ml^-1, physiological salt
[4] = target: B3; test: ITC; nano-ITC, 20 °C; GST-RCC1 (300 µM) injected in 2.0 µl increments into 195 µl of ΔIBB-importin α3 or α1 (100 µM); 20 mM Tris-HCl pH 8.0, 150 mM NaCl, 5 mM BME, 0.1 mM PMSF; single set of binding sites model; triplicate
[5] = target: T2, ΔIBB-Kap60 (co-expressed with yeast …); test: SEC-SAXS; Kap60:yRCC1 complex at 5.0 mg ml^-1 on Superose 12 10/300 GL; 20 mM Tris-HCl pH 7.5, 150 mM NaCl, 5% glycerol, 3 mM BME; frames 710–750

Row | Binder | reduction of binding relative to WT RCC1 [1] [%] | other results
1 | B1 | ~10 | 
2 | B2 |  | stoichiometry N [1]: 1
3 | B3 |  | stoichiometry N [2]: < 1
4 | B4 |  | stoichiometry N [3]: 1
5 | B5 | 25 | 
6 | B6 | ~10 | 
7 | B7 | 25 | 
8 | B8 | ~85 | 
9 | B9 |  | Kd [4]: 620 ± 100 nM
10 | B10 | ~60 | 
11 | B11 |  | stoichiometry N [5]: 1
